We go through one substance from article PMC4681293.

The target in this test is IFP2.0 (Deinococcus radiodurans). As to the kind of experiment: SEC.

The term stoichiometry N denotes a count of units in the complex or per binding partner. IFP2.0 displayed a stoichiometry N of 2.
